Like-named read-outs stand apart in the source and are kept apart here. Where no end group is shown, it is not given here. [ ]: non-standard residue; d: D form. The star is where a group is joined. Acetyl(2-(4-imidazolyl)) = O=C(Cc1c[nH]cn1)*

Experiment in all cases: cell-based or functional assay
The target of experiment [1] is human glucagon receptor (human) (UniProt P47871).
Experiment [2] shares this target. The source holds these as a separate data set.
The target of experiment [3] is human GLP-1 receptor (human) (UniProt P43220).
human GLP-1 receptor (human), sequence (P43220 24-463): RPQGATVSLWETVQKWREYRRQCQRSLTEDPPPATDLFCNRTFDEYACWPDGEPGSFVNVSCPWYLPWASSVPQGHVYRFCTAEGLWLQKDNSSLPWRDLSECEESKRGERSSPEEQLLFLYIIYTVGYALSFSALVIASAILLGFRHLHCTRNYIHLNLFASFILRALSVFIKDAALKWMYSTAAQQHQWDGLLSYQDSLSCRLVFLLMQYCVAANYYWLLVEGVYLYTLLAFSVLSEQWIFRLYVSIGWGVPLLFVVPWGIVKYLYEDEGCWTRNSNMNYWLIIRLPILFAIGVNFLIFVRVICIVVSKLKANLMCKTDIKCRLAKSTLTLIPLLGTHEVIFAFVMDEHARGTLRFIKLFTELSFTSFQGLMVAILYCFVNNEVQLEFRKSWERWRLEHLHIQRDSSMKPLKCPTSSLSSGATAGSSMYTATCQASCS

human glucagon receptor (human), sequence (P47871 26-477): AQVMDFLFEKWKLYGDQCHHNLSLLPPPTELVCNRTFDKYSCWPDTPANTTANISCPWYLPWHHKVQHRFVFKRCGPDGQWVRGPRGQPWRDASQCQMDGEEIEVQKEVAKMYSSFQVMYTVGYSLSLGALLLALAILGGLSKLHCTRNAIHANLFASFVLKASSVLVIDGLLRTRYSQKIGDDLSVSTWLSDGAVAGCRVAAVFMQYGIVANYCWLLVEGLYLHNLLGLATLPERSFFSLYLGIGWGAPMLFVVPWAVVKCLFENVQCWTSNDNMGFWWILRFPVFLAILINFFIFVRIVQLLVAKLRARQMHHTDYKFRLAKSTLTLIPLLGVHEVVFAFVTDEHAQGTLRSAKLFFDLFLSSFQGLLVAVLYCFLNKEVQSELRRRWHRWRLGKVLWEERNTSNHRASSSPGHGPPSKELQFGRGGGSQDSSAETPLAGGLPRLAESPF

For “GLP-1 (from UniProt P01275 92-128) (ligand)”, the EC50 (nM), cAMP in CHO/GCGR in experiment [1] is over 1000 nM.

With [Acetyl(2-(4-imidazolyl))]SQGTFTSDLSRQLEEEAVRLFIEWLMNK [oxyntomodulin derivative (SEQ ID NO. 8)], the EC50 (nM), cAMP in CHO/GCGR in experiment [2] is over 1000 nM. The molecule further gave an EC50 (nM), cAMP in CHO/GLP-1R in experiment [3] of 420 nM.

[Acetyl(2-(4-imidazolyl))]SQGTFTSDYSKYLDERRAQDFVAWLKNTGPSSGAPPPS [oxyntomodulin derivative (SEQ ID NO. 3)] returned an EC50 (nM), cAMP in CHO/GCGR in experiment [2] of 638 nM. In experiment [3], this molecule showed an EC50 (nM), cAMP in CHO/GLP-1R of over 1000 nM.

Take [Acetyl(2-(4-imidazolyl))]SQGTFTSDYSRYLDEEAVRLFIEWIRNGGPSSGAPPPSK [oxyntomodulin derivative (SEQ ID NO. 18)]: in experiment [2], the EC50 (nM), cAMP in CHO/GCGR is over 1000 nM. In experiment [3], this molecule yielded an EC50 (nM), cAMP in CHO/GLP-1R of 96.3 nM.

These data come from patent publication US20140212440A1.
